According to paper PMC12728192 (2025):
Ends that are not written are not given here.

Assays:
[1] = molecular target: T1, Thermothelomyces thermophilus SAM complex (sorting and assembly machinery complex; Sam50:Sam35:Sam37, monomer) (Thermothelomyces thermophilus); assay: MST; replicate 3; detergent
[2] = molecular target: T1, Thermothelomyces thermophilus SAM …; assay: MST; replicate 1; detergent
[3] = molecular target: T1, Thermothelomyces thermophilus SAM …; assay: MST; replicate 6; detergent

T1 sequence (chain, as listed by the source, chain 1 of 3): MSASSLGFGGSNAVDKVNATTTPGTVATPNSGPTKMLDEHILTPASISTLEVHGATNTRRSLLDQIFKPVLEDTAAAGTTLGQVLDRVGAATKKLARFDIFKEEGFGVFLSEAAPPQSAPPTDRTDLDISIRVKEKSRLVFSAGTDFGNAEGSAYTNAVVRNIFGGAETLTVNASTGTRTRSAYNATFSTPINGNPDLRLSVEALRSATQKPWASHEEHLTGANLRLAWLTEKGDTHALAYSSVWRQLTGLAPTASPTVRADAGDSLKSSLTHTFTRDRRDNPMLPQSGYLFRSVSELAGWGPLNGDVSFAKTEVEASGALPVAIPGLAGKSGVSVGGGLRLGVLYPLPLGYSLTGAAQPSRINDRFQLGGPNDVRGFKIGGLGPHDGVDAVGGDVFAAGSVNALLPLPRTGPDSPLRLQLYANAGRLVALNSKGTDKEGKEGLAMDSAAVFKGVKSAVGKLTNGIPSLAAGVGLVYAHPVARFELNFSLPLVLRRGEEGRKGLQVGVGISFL
T1 sequence (chain, as listed by the source, chain 2 of 3): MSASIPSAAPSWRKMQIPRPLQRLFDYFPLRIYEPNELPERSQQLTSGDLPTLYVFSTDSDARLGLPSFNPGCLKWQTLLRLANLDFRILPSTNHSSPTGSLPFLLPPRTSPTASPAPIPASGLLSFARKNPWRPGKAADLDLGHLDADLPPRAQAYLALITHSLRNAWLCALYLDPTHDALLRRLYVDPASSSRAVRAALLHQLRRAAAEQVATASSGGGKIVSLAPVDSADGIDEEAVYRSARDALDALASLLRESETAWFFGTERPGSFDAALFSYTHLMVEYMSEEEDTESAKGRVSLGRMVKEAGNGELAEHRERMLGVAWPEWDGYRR
T1 sequence (chain, as listed by the source, chain 3 of 3): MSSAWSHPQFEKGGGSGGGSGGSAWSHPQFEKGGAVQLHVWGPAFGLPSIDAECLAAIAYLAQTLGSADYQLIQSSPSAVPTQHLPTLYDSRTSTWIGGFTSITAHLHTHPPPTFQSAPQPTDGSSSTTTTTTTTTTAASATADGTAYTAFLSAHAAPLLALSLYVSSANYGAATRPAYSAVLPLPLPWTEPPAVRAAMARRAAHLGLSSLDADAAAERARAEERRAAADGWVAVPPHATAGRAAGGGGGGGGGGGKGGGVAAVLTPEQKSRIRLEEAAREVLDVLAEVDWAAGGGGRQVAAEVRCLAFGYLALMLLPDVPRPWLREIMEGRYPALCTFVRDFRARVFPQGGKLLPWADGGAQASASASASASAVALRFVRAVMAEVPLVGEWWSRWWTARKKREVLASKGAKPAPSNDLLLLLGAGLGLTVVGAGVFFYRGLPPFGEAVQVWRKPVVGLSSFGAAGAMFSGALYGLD

Binder	Kd [1] [nM]	Kd [2] [nM]	Kd [3] [nM]
WNWSKSF [linear darobactin]	491000		
WNWSKSF (also: backbone cyclizations, places not given here) [darobactin A]		149	166
